These results are taken from PMC8857273.

The test system of data set [1] is T1, His6-SUMO-MucR1 (Sinorhizobium fredii CCBAU45436 (SF45436)), ORF:2d010df8.
T1 sequence: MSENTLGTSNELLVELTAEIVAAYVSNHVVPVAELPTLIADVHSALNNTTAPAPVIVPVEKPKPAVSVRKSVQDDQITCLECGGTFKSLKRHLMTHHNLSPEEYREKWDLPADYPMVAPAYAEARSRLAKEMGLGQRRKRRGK
The data set can be described thus: EMSA. The note with it: EMSA: 25 mM Tris pH 7.5, 100 mM KCl, 5 mM MgCl2, 5% glycerol, 0.05% dodecyl maltoside, 0.5 mg/mL BSA, 0.1 mg/mL sonicated salmon sperm DNA; room temperature ….

Data set [2] has as its system T2, His6-SUMO-MucR2 (Sinorhizobium fredii CCBAU45436 (SF45436)), ORF:a672ea6f.
T2 sequence: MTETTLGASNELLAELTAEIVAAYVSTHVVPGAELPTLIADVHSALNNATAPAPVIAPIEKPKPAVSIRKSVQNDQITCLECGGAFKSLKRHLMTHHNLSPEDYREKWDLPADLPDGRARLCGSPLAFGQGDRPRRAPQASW
As to the kind of experiment: EMSA. The settings on record: EMSA: 25 mM Tris pH 7.5, 100 mM KCl, 5 mM MgCl2, 5% glycerol, 0.05% dodecyl maltoside, 0.5 mg/mL BSA, 0.1 mg/mL sonicated salmon sperm DNA; room temperature …. In general terms: Mobility shift assays separate free from complexed probe on a gel.

With “CATATTAGATTCGGAAGGACCGACGACGCCCCTCGATCGCTGCCAGTCCACTGACGATTGTTTTGAAGTGTTCAGCTTCCTGGAGATATAACTTCCAAAAGCCGAAATAAAGTTTGGATCATCTTTGATTTTATACAGTTCTCTGCTACTGCCAGAGCGTCTCCGACTTGGTGCATTTTAGCAACAGGCGTCATTCGAAAGTAAAGCTCACTCATCTATATTCGAGCGATTGGCGGCATTGAAGGCACAG (double strand) [visN promoter probe (250 bp)]”, the figures for the binding entry in data set [1] and in data set [2] were “binds” and “no binding”, respectively.
